For one assay, the target named is T1, Human ACVR2A (human, UniProt P27037 20-135, limits assumed).
T1 construct: also called activin receptor, type II A
The assay can be described thus: ELISA. A digest of the protocol:
(§1)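 ELISA measured binding of ACVR2A-specific monoclonal antibodies to human and mouse ACVR2A. Biotinylated goat anti-human kappa light chain served as positive control and human Fc as negative control.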
Background: An ELISA detects its analyte on a solid surface through an enzyme-linked reagent.

In another assay the target is Mouse ACVR2A (mouse, UniProt P27038 20-135, limits assumed). The assay can be described thus: ELISA. An outline of the steps:
as §1

Another assay concerns the target T2, Goat anti-Human Kappa.
T2 construct: Positive control; also called biotinylated goat anti-human kappa light chain
Nature of the assay: ELISA; positive control. An outline of the steps: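 mAb binding by ELISA; antigens: hu ACVR2A, mu ACVR2A; pos ctrl biotinylated goat anti-hu kappa LC; neg ctrl hu Fc.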
Also: test concentration or dose not given here.

T1 sequence (P27037 20-135 limits assumed): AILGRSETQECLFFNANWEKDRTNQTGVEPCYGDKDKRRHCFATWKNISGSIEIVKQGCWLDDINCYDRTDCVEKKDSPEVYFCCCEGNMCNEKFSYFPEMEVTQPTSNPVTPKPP
Mouse ACVR2A, sequence (P27038 20-135 limits assumed): as the sequence (P27037 20-135 limits assumed) above, with K20R, V73I counted along it

B1: 372_B09 (antibody, V domains shown)
VH: EVQLLESGGGLVQPGGSLRLSCAASGFTFSSYSMNWVRQAPGKGLEWVSSINYNSGYTSYADSVKGRFTISRDNSKNTLYLQMNSLRAEDTAVYYCARGATWHDTHLDYWGQGTLVTVSS
VL: DIQMTQSPSSLSASVGDRVTITCRASQSILTYLNWYQQKPGKAPKLLIYAATSRASGVPSRFSGSGSGTDFTLTISSLQPEDFATYYCQQSYETPLTFGGGTKVEIK
notes: VH/VL only
With B1, the optical density was found to be 3.11 OD with Human ACVR2A, 3.01 OD with Mouse ACVR2A and 3.5 OD with Goat anti-Human Kappa.

B2: 375_C01 (antibody, V domains shown)
VH: EVQLLESGGGLVQPGGSLRLSCAASGFTFSSYGMNWVRQAPGKGLEWVSSINYNGGYKGYADSVKGRFTISRDNSKNTLYLQMNSLRAEDTAVYYCARGATWHDTHLDYWGQGTLVTVSS
VL: not shown
notes: VH/VL only
As for B2, the optical density turned out to be 2.96 OD with Human ACVR2A, 3.27 OD in the assay with Mouse ACVR2A and 3.14 OD with Goat anti-Human Kappa.

B3: 374_A04 (antibody, V domains shown)
VH: EVQLLESGGGLVQPGGSLRLSCAASGFTFSSYSMNWVRQAPGKGLEWVAGINYNGGYTSYADSVKGRFTISRDNSKNTLYLQMNSLRAEDTAVYYCARGATWHDTHLDYWGQGTLVTVSS
VL: DIQMTQSPSSLSASVGDRVTITCRASQSILTYLNWYQQKPGKAPKLVIYAATSRASGVPSRFSGSGSGTDFTLTISSLQPEDFATYYCQQSYDTPLTFGGGTKVEIK
notes: VH/VL only
On to B3, for which the optical density with Human ACVR2A is 3.65 OD; with Mouse ACVR2A it was 3.68 OD; with Goat anti-Human Kappa it was 2.99 OD.

B4: 373_G02 (antibody, V domains shown)
VH: EVQLLESGGGLVQPGGSLRLSCAASGFTFSSYSMNWVRQAPGKGLEWVSGINYNGGYTSYADSVKGRFTISRDNSKNTLYLQMNSLRAEDTAVYYCARGATWHDTHLDYWGQGTLVTVSS
VL: DIQMTQSPSSLSASVGDRVTITCRASQSIITYLNWYQQKPGKAPKLLIYAATSRASGVPSRFSGSGSGTDFTLTISSLQPEDFATYYCQQSYSSPLTFGGGTKVEIK
notes: VH/VL only
As to B4, the optical density with Human ACVR2A came to 3.59 OD; with Mouse ACVR2A, 3.56 OD; in the assay with Goat anti-Human Kappa it was 3.22 OD.

B5: 375_A03 (antibody, V domains shown)
VH: EVQLLESGGGLVQPGGSLRLSCAASGFTFDSYSMNWVRQAPGKGLEWVAGINYNGGYTSYADSVKGRFTISRDNSKNTLYLQMNSLRAEDTAVYYCARGATWHDTHLDYWGQGTLVTVSS
VL: DIQMTQSPSSLSASVGDRVTITCRASQSILTYLNWYQQKPGKAPKLLIYAATSRHSGVPSRFSGSGSGTDFTLTISSLQPEDFATYYCQQSYDNPLTFGGGTKVEIK
notes: VH/VL only
Regarding B5, the optical density in the assay with Human ACVR2A was 3.62 OD; with Mouse ACVR2A it was 3.62 OD; with Goat anti-Human Kappa, 3.09 OD.

B6: 372_F02 (antibody, V domains shown)
VH: EVQLLESGGGLVQPGGSLRLSCAASGFTFSSYGMHWVRQAPGKGLEWVASINYNGGYTSYADSVKGRFTISRDNSKNTLYLQMNSLRAEDTAVYYCARGATWHDTHLDYWGQGTLVTVSS
VL: DIQMTQSPSSLSASVGDRVTITCRASQSILTYLNWYQQKPGKAPKLVIYAATSRHSGVPSRFSGSGSGTDFTLTISSLQPEDFATYYCQQSYDLPLTFGGGTKVEIK
notes: VH/VL only
On to B6, for which the figures for the optical density with Human ACVR2A, with Mouse ACVR2A and in the assay with Goat anti-Human Kappa were 3.01 OD, 3.09 OD and 3.69 OD, respectively.

B7: 374_D09 (antibody, V domains shown)
VH: EVQLLESGGGLVQPGGSLRLSCAASGFTFDSYGMNWVRQAPGKGLEWVANINYNGGYKGYADSVKGRFTISRDNSKNTLYLQMNSLRAEDTAVYYCARGATWHDTHLDYWGQGTLVTVSS
VL: DIQMTQSPSSLSASVGDRVTITCRASQSIISYVNWYQQKPGKAPKLLIYAATSLASGVPSRFSGSGSGTDFTLTISSLQPEDFATYYCQQSYDTPLTFGGGTKVEIK
notes: VH/VL only
Regarding B7, the optical density in the assay with Human ACVR2A turned out to be 3.61 OD; in the assay with Mouse ACVR2A it was 3.65 OD; with Goat anti-Human Kappa, 3.1 OD.

B8: 374_C10 (antibody, V domains shown)
VH: EVQLLESGGGLVQPGGSLRLSCAASGFTFSSYSMNWVRQAPGKGLEWVSSINYNGGYKGYADSVKGRFTISRDNSKNTLYLQMNSLRAEDTAVYYCARGATWHDTHLDYWGQGTLVTVSS
VL: DIQMTQSPSSLSASVGDRVTITCRASQSIVTYLNWYQQKPGKAPKLLIYAATSLASGVPSRFSGSGSGTDFTLTISSLQPEDFATYYCQQSYNTPLTFGGGTKVEIK
notes: VH/VL only
For the molecule B8, the optical density with Human ACVR2A was 3.57 OD; with Mouse ACVR2A it was 3.67 OD; with Goat anti-Human Kappa, 3.08 OD.

B9: 374_D04 (antibody, V domains shown)
VH: EVQLLESGGGLVQPGGSLRLSCAASGFTFSSYSMNWVRQAPGKGLEWVAGINYNGGYTSYADSVKGRFTISRDNSKNTLYLQMNSLRAEDTAVYYCARGATWHDTHLDYWGQGTLVTVSS
VL: DIQMTQSPSSLSASVGDRVTITCRASQSILSYLNWYQQKPGKAPKLVIYAATSRHSGVPSRFSGSGSGTDFTLTISSLQPEDFATYYCQQSYDTPLTFGGGTKVEIK
notes: VH/VL only
Turning to B9, the results for the optical density with Human ACVR2A, with Mouse ACVR2A and with Goat anti-Human Kappa were 3.63 OD, 3.65 OD and 3.05 OD, respectively.

B10: 372_E08 (antibody, V domains shown)
VH: EVQLLESGGGLVQPGGSLRLSCAASGFTFSDYSMNWVRQAPGKGLEWVSNINYNGGYTSYADSVKGRFTISRDNSKNTLYLQMNSLRAEDTAVYYCARGATWHDTHLDYWGQGTLVTVSS
VL: DIQMTQSPSSLSASVGDRVTITCRASQSIITYLNWYQQKPGKAPKLLIYAATSRASGVPSRFSGSGSGTDFTLTISSLQPEDFATYYCQQSYNLPLTFGGGTKVEIK
notes: VH/VL only
With B10, the optical density was 2.56 OD with Human ACVR2A, 2.82 OD with Mouse ACVR2A and 3.51 OD with Goat anti-Human Kappa.

B11: 374_H05 (antibody, V domains shown)
VH: EVQLLESGGGLVQPGGSLRLSCAASGFTFSSYSMNWVRQAPGKGLEWVAGINYNGGYTSYADSVKGRFTISRDNSKNTLYLQMNSLRAEDTAVYYCARGATWHDTHLDYWGQGTLVTVSS
VL: DIQMTQSPSSLSASVGDRVTITCRASQSILSYVNWYQQKPGKAPKLVIYAATSRASGVPSRFSGSGSGTDFTLTISSLQPEDFATYYCQQSYDNPLTFGGGTKVEIK
notes: VH/VL only
Take B11: the optical density amounted to 3.31 OD in the assay with Human ACVR2A, 3.3 OD in the assay with Mouse ACVR2A and 3.04 OD with Goat anti-Human Kappa.

B12: 373_A06 (antibody, V domains shown)
VH: EVQLLESGGGLVQPGGSLRLSCAASGFTFSSYSMNWVRQAPGKGLEWVSGINYNGGYKSYADSVKGRFTISRDNSKNTLYLQMNSLRAEDTAVYYCARGATWHDTHLDYWGQGTLVTVSS
VL: not shown
notes: VH/VL only
Consider B12, for which the optical density in the assay with Human ACVR2A was found to be 3.64 OD; with Mouse ACVR2A, 3.62 OD; in the assay with Goat anti-Human Kappa, 3.07 OD.

B13: 372_H11 (antibody, V domains shown)
VH: EVQLLESGGGLVQPGGSLRLSCAASGFTFSSYGMHWVRQAPGKGLEWVAGINYNGGYTSYADSVKGRFTISRDNSKNTLYLQMNSLRAEDTAVYYCARGATWHDTHLDYWGQGTLVTVSS
VL: DIQMTQSPSSLSASVGDRVTITCRASQSILSYVNWYQQKPGKAPKLLIYAATSRASGVPSRFSGSGSGTDFTLTISSLQPEDFATYYCQQSYENPLTFGGGTKVEIK
notes: VH/VL only
Consider B13, for which the optical density in the assay with Human ACVR2A was 2.62 OD; with Mouse ACVR2A, 2.86 OD; with Goat anti-Human Kappa it was 3.65 OD.

B14: 373_D06 (antibody, V domains shown)
VH: EVQLLESGGGLVQPGGSLRLSCAASGFTFSSYSMNWVRQAPGKGLEWVAGINYNGGYTSYADSVKGRFTISRDNSKNTLYLQMNSLRAEDTAVYYCARGATWHDTHLDYWGQGTLVTVSS
VL: DIQMTQSPSSLSASVGDRVTITCRASQSIVTYLNWYQQKPGKAPKLLIYAATSRASGVPSRFSGSGSGTDFTLTISSLQPEDFATYYCQQSYDTPLTFGGGTKVEIK
notes: VH/VL only
For the molecule B14, the values for the optical density with Human ACVR2A, with Mouse ACVR2A and in the assay with Goat anti-Human Kappa were 3.63 OD, 3.57 OD and 3.21 OD, respectively.

B15: 373_F07 (antibody, V domains shown)
VH: EVQLLESGGGLVQPGGSLRLSCAASGFTFSSYSMNWVRQAPGKGLEWVSGINYNSGYKSYADSVKGRFTISRDNSKNTLYLQMNSLRAEDTAVYYCARGATWHDTHLDYWGQGTLVTVSS
VL: DIQMTQSPSSLSASVGDRVTITCRASQSILSYLNWYQQKPGKAPKLLIYAATSLASGVPSRFSGSGSGTDFTLTISSLQPEDFATYYCQQSYETPLTFGGGTKVEIK
notes: VH/VL only
For B15, the optical density with Human ACVR2A is 3.61 OD; with Mouse ACVR2A, 3.62 OD; with Goat anti-Human Kappa it was 3.13 OD.

B16: 374_A05 (antibody, V domains shown)
VH: EVQLLESGGGLVQPGGSLRLSCAASGFTFSDYGMNWVRQAPGKGLEWVANINYNGGYKGYADSVKGRFTISRDNSKNTLYLQMNSLRAEDTAVYYCARGATWHDTHLDYWGQGTLVTVSS
VL: DIQMTQSPSSLSASVGDRVTITCRASQSIVRYLNWYQQKPGKAPKLVIYAATSLASGVPSRFSGSGSGTDFTLTISSLQPEDFATYYCQQSYELPLTFGGGTKVEIK
notes: VH/VL only
For the molecule B16, the optical density with Human ACVR2A was 3.6 OD; in the assay with Mouse ACVR2A it was 3.6 OD; in the assay with Goat anti-Human Kappa, 2.92 OD.

B17: 374_G05 (antibody, V domains shown)
VH: EVQLLESGGGLVQPGGSLRLSCAASGFTFSSYSMNWVRQAPGKGLEWVSNINYNSGYKGYADSVKGRFTISRDNSKNTLYLQMNSLRAEDTAVYYCARGATWHDTHLDYWGQGTLVTVSS
VL: DIQMTQSPSSLSASVGDRVTITCRASQSIISYLNWYQQKPGKAPKLLIYAATSRASGVPSRFSGSGSGTDFTLTISSLQPEDFATYYCQQSYDLPLTFGGGTKVEIK
notes: VH/VL only
As to B17, the optical density amounted to 3.66 OD with Human ACVR2A, 3.67 OD with Mouse ACVR2A and 3 OD in the assay with Goat anti-Human Kappa.

B18: 373_B09 (antibody, V domains shown)
VH: EVQLLESGGGLVQPGGSLRLSCAASGFTFDSYSMNWVRQAPGKGLEWVSGINYNGGYKSYADSVKGRFTISRDNSKNTLYLQMNSLRAEDTAVYYCARGATWHDTHLDYWGQGTLVTVSS
VL: DIQMTQSPSSLSASVGDRVTITCRASQSILSYLNWYQQKPGKAPKLVIYAATSLASGVPSRFSGSGSGTDFTLTISSLQPEDFATYYCQQSYETPLTFGGGTKVEIK
notes: VH/VL only
As for B18, the optical density amounted to 3.6 OD in the assay with Human ACVR2A, 3.62 OD with Mouse ACVR2A and 3.24 OD with Goat anti-Human Kappa.

For the origin of these results see US20210380703A1 (RIGEL PHARMACEUTICALS, published 2021).
